Measurements taken from paper PMC2832577 (Science (New York, N.Y.), 2008).

Key:
LeuT [1] = target: T1, LeuT (Aquifex aeolicus, UniProt O67854); test: displacement of [3H]leucine binding
LeuT [2] = target: T1, LeuT; test: direct radioligand binding
LeuT [3] = target: T1, LeuT; test: X-ray crystal structure, anomalous difference Fourier; assay type: binding; conditions: primary substrate site
CSCC[C@H](N)C(=O)O = test: purified protein; conditions: transport
[4] = test system: N[C@@H](Cc1ccc(O)cc1)C(=O)O; test: purified protein; conditions: transport
CC(C)C[C@H](N)C(=O)O = test: purified protein; conditions: transport
NCC(=O)O = test: purified protein; conditions: transport

Compound CSCC[C@H](N)C(=O)O [Methionine] has a Ki (LeuT [1]) of 0.232 ± 0.021 µM and a Kd (LeuT [2]) of 0.069 ± 0.008 µM.
Compound N[C@@H](Cc1ccc(O)cc1)C(=O)O [Tyrosine] has a Ki (LeuT [1]) of 9.04 ± 0.55 µM.
In the case of C[Se]CC[C@H](N)C(=O)O [selenomethionine], the “X-ray crystal structure, anomalous difference Fourier” value (LeuT [3]) is reported as “We also measured diffraction data on a LeuT-selenomethionine complex”.
Compound NCC(=O)O [Glycine] has a Ki (LeuT [1]) of 322 µM.
LeuT (Aquifex aeolicus VF5) was tested, and the Km (CSCC[C@H](N)C(=O)O) was 0.289 ± 0.027 µM, the Vmax (CSCC[C@H](N)C(=O)O) was 0.000523 µmol/min/mg and the kcat (CSCC[C@H](N)C(=O)O) was 0.000517 ± 1.11e-05 s⁻¹. For the same compound, the kcat/Km (CSCC[C@H](N)C(=O)O) was 1780 M⁻¹ s⁻¹, the Km [4] was 2.83 ± 0.15 µM and the Vmax [4] was 0.000209 µmol/min/mg. It also gave a kcat [4] of 0.000206 ± 1.39e-05 s⁻¹, a kcat/Km [4] of 83.3 M⁻¹ s⁻¹ and a Km (CC(C)C[C@H](N)C(=O)O) of 0.146 ± 0.025 µM. For the same compound, the Vmax (CC(C)C[C@H](N)C(=O)O) was 0.000343 µmol/min/mg, the kcat (CC(C)C[C@H](N)C(=O)O) was 0.000333 ± 5.56e-05 s⁻¹ and the kcat/Km (CC(C)C[C@H](N)C(=O)O) was 2280 M⁻¹ s⁻¹. For the same compound, the Km (NCC(=O)O) was 1.91 ± 0.03 µM, the Vmax (NCC(=O)O) was 0.000444 µmol/min/mg and the kcat (NCC(=O)O) was 0.000439 ± 5.56e-05 s⁻¹. It also gave a kcat/Km (NCC(=O)O) of 222 M⁻¹ s⁻¹.
